assay: yeast display, Sf9 membrane polyspecificity reagent, FACS + sequencing; frameworks hold sequencing errors
In short: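 Nanobodies came from a synthetic yeast display library in Saccharomyces cerevisiae BJ5465, induced with galactose for 36–48 hours and stained for 1 hour at 4 °C with 10% biotinylated, detergent-solubilized Sf9 membrane reagent. Cells were enriched on streptavidin microbeads and then FACS-sorted, with low and high (top ~1%) gates set on anti-HA fluorescence for expression and streptavidin fluorescence for reagent binding. Each polyreactivity label reflects the gate a clone came from. Genes were amplified by colony PCR, sequenced by MiSeq 2 × 250 and filtered by CDR length.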

Row | Sequence | polyreactivity (PSR sort gate)
1 | QVQLVESGGGLVQAGGSLRLSSAASGITFGLYAMGWYRQPPGKERELVADITWSGGSTYYADSVKGRFTISRDNAKNTVYFQMNRLKPEDTAVYYCNADLYADESLFWFALYDYWGQGTQVTVSS | low polyreactivity
2 | QVQLVESGGGLVQAGGSLRLSSAASGITFNLNDMGWSRQAPGKERELVAAITSGGNTSYADSVKGRFTISRDNAKNTVYLQMNSLKPEDTAVYYCPTEDFRTDTGMYYWGQGTQVTVSS | low polyreactivity
3 | QVQLVESGGGLVQAGGSLRLSSAASGITFQAYPMGWYRQAPGKQRELVAAISNGGSTYYADSVKGRFTISRDNAKNTVYLEMNSLNPEDTAVYYCAAVSYYPARYGYWGQGTQVTVSS | high polyreactivity
4 | QVQLVESGGGLVQAGGSLRLSSAASGITYTPNAMGSYRQAPGKEREFVAAISVSGGSTYYADSVKGRFTISRDNAKYTVYLQMNSLKPEDTAVYYCATDFRRYAAKLYRYYYWGLGTQVTVSS | high polyreactivity
5 | QVQLVESGGGLVQAGGSLRLSSAASGLIFVFYAMGWYRQAPGKERELVAAISTSGDRTYYADSVKGRFTISRDNAKNTVYLQMNSLKPEDTAVYYCAAGRRKVPYSREYYYWGQGTQVTVSS | high polyreactivity
6 | QVQLVESGGGLVQAGGSLRLSSAASGLIFVHYAMGWSRQAPGKERELVSAISFRGGRTYYADSVKGRFTISRDNAKNTVYVQMNSLKPEDTAVSYCAATIKAYPTPLLGDYWGQGTQVTVSS | high polyreactivity
7 | QVQLVESGGGLVQAGGSLRLSSAASGNTFWHYAMGWYRQAPGKERELVAAITRSTGSTYYADSVKGRFTISRDNAKYSVYLQMNSLKPEDTAVYYCAADFYRHYFRVDSWGQGTQVTVSS | low polyreactivity
8 | QVQLVESGGGLVQAGGSLRLSSAASGRIFAGNAMGWYRQAPGKERELVAVISKGGGRTYYADSVKGRFTISRDNAKNTVYLQMNSLKPEDTAVYDCDAEGSYWFRRYGYWGQGTQVTVSS | high polyreactivity
9 | QVQLVESGGGLVQAGGSLRLSSAASGRIFGKYAMGWYRQAPGKERELVAAIRITGGSTYYADSVKGRFTISRDNAKNTVYLQMNSLKPEDTAVYYSAAVYKYADVIYDYWGQGTQVTVSS | high polyreactivity
10 | QVQLVESGGGLVQAGGSLRLSSAASGRIFNPNGMGWYRQAPGKDRELVAVITRSGTSTYYADSVKGRFTISREYAKNTFYRQMYSLKPEDTAVYYCNAGKKYVDYGVLSSRYYWGQGTQVTVSS | low polyreactivity
11 | QVQLVESGGGLVQAGGSLRLSSAASGRIFRGNEMGWYRQAPGKEREFVAAISWGGGSTYYADSVKGRFTISRDNAKKTVYLQMNSLKPEDTAVYYCAAGSPYAYNYWGQGTQVTVSS | high polyreactivity
12 | QVQLVESGGGLVQAGGSLRLSSAASGRIFSRNGMGWYRPAPGKERELVAAIRRYGGSTYYADSVKGRFTISRDNEKNTVNLQMNSLKAEDTAVFFCAAEPYGGGVKHSAYDYWGQGTQVTVSS | low polyreactivity
13 | QVQLVESGGGLVQAGGSLRLSSAASGRIFTIYAMGWYRQAPGKERELVATISRRGGSTYYADSVKGRFTISRDNAKNTVYLQMNSLKPEDTAGYYCAADSVITWWAYDYWGQGTQVTVSS | high polyreactivity
14 | QVQLVESGGGLVQAGGSLRLSSAASGRIFTVYAMGWYRQAPGKERELVAAITRGGGGTYYADSVKGRFTITRDYAKNTDYLQMNRLKPEDTAVYYCAATHNQVVARYSFNYWGQGTQVTVSS | high polyreactivity
15 | QVQLVESGGGLVQAGGSLRLSSAASGRIFYGYAMGWSRQAPGKERELVAAITRSSSTYFADSVKGRFTISRDNAKNTVYLQMNSLKPEDTAVYDCAVYRLSWIGSVQYEYWGQGTQVTVSS | high polyreactivity
16 | QVQLVESGGGLVQAGGSLRLSSAASGRIFYQYAMGWYRQAPGKERELVASISRSGTRTYYADSVKGRFTISRDNAKNTVYLQMISLKPEDTAVYYCAARGRASVERRGGYYYWGQGTQVTVSS | high polyreactivity
17 | QVQLVESGGGLVQAGGSLRLSSAASGRIIKIYAMGWYRQAPGKERELVAAISGRGGSTYYADSVKGRFTISRDNAKYTVYLQMNSLKPEDTAVYYCAAVGYGFSAYSTYDYWGQGTQVTVSS | high polyreactivity
18 | QVQLVESGGGLVQAGGSLRLSSAASGRLFSEYAMGWYRQAPGKERELVAAISRRGGRTYYADSVKGRFTISRDNAKNTVYVQMNSLIPEDTAVYYCAADHGDPGGYDYWGQGSQVTVSS | high polyreactivity
19 | QVQLVESGGGLVQAGGSLRLSSAASGRNFYANAMGWSRQAPGKERYFVAAISWGGGSTNYADSVKGRFTISRDNAKNTGYLQKNSQKPEDTAVYYCATGFYYYLTKTIPYEYEYWGLGTQVTVSS | low polyreactivity
20 | QVQLVESGGGLVQAGGSLRLSSAASGRTFDFYAMGWYRQAPGKERELVAAITGSDTSTYYADSVKGRFTISRDNAKNTVYLQMNSLKPEDTAVYYCAADGQWAYTVDPYVIYYRLDYWGQGTQVTVSS | low polyreactivity
21 | QVQLVESGGGLVQAGGSLRLSSAASGRTFDRNAMGWYRQAPGKERELVAGITRSGDSTYADSVKGRFTISRDNAKITVYLQMNSLKPEDTAVYYCNKEGTVGGTRGYWGQGTQVTVSS | low polyreactivity
22 | QVQLVESGGGLVQAGGSLRLSSAASGRTFGVNAMGWYRQAPGKERELVASISWGGGSTYYADSVKGRFTISRDNAKNTVYLQMNSLKPEDTAVYFCNRAYVRYVPMNYWGQGTQVTVSS | high polyreactivity

Row | Sequence | polyreactivity (PSR sort gate)
23 | QVQLVESGGGLVQAGGSLRLSSAASGRTFQRNVMGWYRQAPGKDRELVAAISSSGGGTYYADSVKGRFTISRDNAKNTVYLQMNSLKPEDTAVYYCAARYRSYGGYGYYYWGLGTQVTVSS | high polyreactivity
24 | QVQLVESGGGLVQAGGSLRLSSAASGRTFSGYAMGWYRQAPGKERELVASISGSGSSTYYADSVKGRFTISRDNAMNTVYLQMNSLKPEDTAVYYCAKRSFYYRIQTGYNYWGQGTQVTVSS | high polyreactivity
25 | QVQLVESGGGLVQAGGSLRLSSAASGRTFVINAMGWYRQAPGKERELVAAITWGGGSTYYADSVKGRFTISRDNAKNTVYLQMNSLKQEDSAVYYCATSYSVQYGGSGYYWGQGTQVTVSS | low polyreactivity
26 | QVQLVESGGGLVQAGGSLRLSSAASGRTFYYNAMGWYRQAPGKEREFVAVMTSSGGSTYYADSVKGRFTISRDNAKNTVYLQMNSLKPEDTAVYYSAASNTEQQLVVLIEVYYTRYDYWGQGTQETVSS | low polyreactivity
27 | QVQLVESGGGLVQAGGSLRLSSAASGRTLSKNAMGWYRQAPGKERELVATISSVGRTNYADSVKGRFTISRDNAKNTVYLQMNSLKPEDTAVYYCAATVRGKRSTYDYWGQGTQVTVSS | high polyreactivity
28 | QVQLVESGGGLVQAGGSLRLSSAASGRTSLAYAMGWYRQAPGKERELVAVITSGGNTNYADSVKGRFTISRDNAKNTVYLQMNSLKPEDTAVYYCNKKKRWQWYSESVLDYLGFYSWGQGTQVTVSS | low polyreactivity
29 | QVQLVESGGGLVQAGGSLRLSSAASGSIFASYAMGWYRQAPGKERELVAAISRRAVRTYYADSVKGRFTISRDNAKNTVYLQMNSLKPEDSAVYYCNAASSLPGYDYWGQGTQLTVSS | high polyreactivity
30 | QVQLVESGGGLVQAGGSLRLSSAASGSIFDKNAMGWYRQAPGKERELVAAIRRTSTTYYADSVKGRFTISRDNAKNTVFLKMNSLKPEDTAVYYCAATYGSGYWYPRYYYWGQGTEVTVSS | high polyreactivity
31 | QVQLVESGGGLVQAGGSLRLSSAASGSIFELNAMGWYRQAPGKERELVASISFRGTSTYYADSVKGRFTISRDYAKNTVYLKMNSLKPDDNAVYYCAADTTFPFSYWGQGTQVTVSS | low polyreactivity
32 | QVQLVESGGGLVQAGGSLRLSSAASGSIFGDYVMGWSRQAPGKERELVAAINRGGSTYYADSVKGRFTISRDNAKNTVYLHMNSLKPEDTAVYYCAAGYPSWYYGDPYDSWGQGTQVTVSS | low polyreactivity
33 | QVQLVESGGGLVQAGGSLRLSSAASGSIFPKNTMGWYRQAPGKERELVAAISKSGGSTYYADSVKGRFTISRDNAKNTVYLQMNSLKPEDTAVYYCAAALGLRSTSWGRRGGGGDYWGQGTQVTVSS | high polyreactivity
34 | QVQLVESGGGLVQAGGSLRLSSAASGSIFRRYALGWYRQEPGKESELVAAISRSAGSTYYADSVKGRFTISRDNAKNTVYLQMNSLKPEETAVYYCKTDPSRSPGDVVSASVIKRDYWGQGTQVTVSS | low polyreactivity
35 | QVQLVESGGGLVQAGGSLRLSSAASGSIFRWYAMGWYRQAPGKERELVAAISRGGRTNYADSVKGRFTISRDNAKNTVYLQMNSLKPEDTAVYYCNKVLRNYSSTGVISVLTDYDYWGQGTQVTVSS | high polyreactivity
36 | QVQLVESGGGLVQAGGSLRLSSAASGSIFSRYAMGWYRQAPGKEREMVAALNGRGSRTYYADSVKGRFTISRDNSKNTVYLLMNSLKPEDTAVYYCAAESYTAWELDYWGQGTQVTVSS | high polyreactivity
37 | QVQLVESGGGLVQAGGSLRLSSAASGSIFYYNAMGWYRQAPGKEREFVAAISARGGSTYYADSVKGRFTISRDNAKNTVYLQMNSLKPEDTAVYYCAASWGLDTYSDSTYWGGYYYSGQGTQVTVSS | low polyreactivity
38 | QVQLVESGGGLVQAGGSLRLSSAASGSILYFNAMGWYRQAPGKERELVAAISRSGGSTYYADSVKGRFTISRDNAKNTVYLQMNSLKPEDTAVYYCAAVYIRCRGNRFDYWGQGTQVTVSS | high polyreactivity
39 | QVQLVESGGGLVQAGGSLRLSSAASGSNFPPNAMGWYRQAPGKEREFVASITSSGGITNYADSVKGRFTISRDNAKNTVYLQMNSLKPEDTAVYYCAAKYYGGTRFRPYGYWGQGTQVTVSS | high polyreactivity
40 | QVQLVESGGGLVQAGGSLRLSSAASGSSFYRYAMGSYRQAPGKERELVATITRSGGSTYYADSVKGRFTISRDNAKNTVYLQMNSLKPEDTAVYYCAARGWYKSDYWGQGTQVTVSS | low polyreactivity
41 | QVQLVESGGGLVQAGGSLRLSSAASGSTFAEYAMGWYRQAPGKERELVAAIRWSGGSTSYADSVKGRFTISRDNAKNTVYLQMNSLKPEDTAVYYCAAERFWYDGEVKLYVLSYYWGQGTQVTVSS | low polyreactivity
42 | QVQLVESGGGLVQAGGSLRLSSAASGSTFAYYAMGWYRQEPAKEGELVASISWRGGSTYYADSVKGRFTISRDNAKNTVYLQMNSLKPEDTAVYYCAARSTYRPWLLSAYGYWGQGTQVTVSS | low polyreactivity
43 | QVQLVESGGGLVQAGGSLRLSSAASGSTFGYYAMGWYRQPPGKERELVAAISSSAGTTYYADSVKGCFTISRDNAKNTVYLQMNSLKPEDTAVYYCAADAVSGREYWGQGTQVTVST | low polyreactivity
